Data taken from publication PMC7954794, “Protein context shapes the specificity of SH3 domain-mediated interactions in vivo” (Nature Communications, 2021).

Tested on: Abp1 PPIs
Assay: DHFR-PCA of Abp1 SH3-swapped baits (Fig. 2B-D, S2C, S2F);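 for Protein-protein interaction distance between Abp1 SH3-swapped baits, to ABP1: Euclidean distance between DHFR-PCA score profiles of the baits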;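 for Protein-protein interaction distance between Abp1 SH3-swapped baits, to BEM1-2: Euclidean distance between DHFR-PCA score profiles of the baits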;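 for Protein-protein interaction distance between Abp1 SH3-swapped baits, to BOI1: Euclidean distance between DHFR-PCA score profiles of the baits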;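 for Protein-protein interaction distance between Abp1 SH3-swapped baits, to BZZ1-1: Euclidean distance between DHFR-PCA score profiles of the baits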
Format: cell-based, Saccharomyces cerevisiae
Method in brief: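 Interactions were scored by DHFR protein-fragment complementation. DHFR F[1,2]-tagged Abp1 strains, whose SH3 was swapped for yeast or human ortholog domains, were crossed on YPD at 30 °C for 48 h with a 1536-format array of 575 prey-DHFR F[3] strains and 40 negatives, giving four replicates per pair. PCA selection lasted 4 days after double diploid selection.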

[1] = number of PPIs, difference, Abp1 SH3-swapped with the listed SH3, Fig2D,S2F

B1: YBL039C (protein, UniProt P28274 1-579, looked up)
CTP synthase 1: MKYVVVSGGVISGIGKGVLASSTGMLMKTLGLKVTSIKIDPYMNIDAGTMSPLEHGECFVLDDGGETDLDLGNYERYLGVTLTKDHNITTGKIYSHVIAKERKGDYLGKTVQIVPHLTNAIQDWIERVAKIPVDDTGMEPDVCIIELGGTVGDIESAPFVEALRQFQFKVGKENFALIHVSLVPVIHGEQKTKPTQAAIKGLRSLGLVPDMIACRCSETLDKPTIDKIAMFCHVGPEQVVNVHDVNSTYHVPLLLLEQKMIDYLHARLKLDEISLTEEEKQRGLELLSKWKATTGNFDESMETVKIALVGKYTNLKDSYLSVIKALEHSSMKCRRKLDIKWVEATDLEPEAQESNKTKFHEAWNMVSTADGILIPGGFGVRGTEGMVLAARWARENHIPFLGVCLGLQIATIEFTRSVLGRKDSHSAEFYPDIDEKNHVVVFMPEIDKETMGGSMRLGLRPTFFQNETEWSQIKKLYGDVSEVHERHRHRYEINPKMVDELENNGLIFVGKDDTGKRCEILELKNHPYYIATQYHPEYTSKVLDPSKPFLGLVAASAGILQDVIEGKYDLEAGENKFNF
- medrep (log2 median colony size normalized to plate background) (Fig2B, bait ABP1, label = prey, Replicates 4): 3.877

B2: BBC1: yeast SH3-containing protein; SH3-deleted or knockout strain (protein, UniProt P47068 1-1157, looked up)
Myosin tail …: MSEPEVPFKVVAQFPYKSDYEDDLNFEKDQEIIVTSVEDAEWYFGEYQDSNGDVIEGIFPKSFVAVQGSEVGKEAESSPNTGSTEQRTIQPEVEQKDLPEPISPETKKETLSGPVPVPAATVPVPAATVPVPAATAVSAQVQHDSSSGNGERKVPMDSPKLKARLSMFNQDITEQVPLPKSTHLDLENIPVKKTIVADAPKYYVPPGIPTNDTSNLERKKSLKENEKKIVPEPINRAQVESGRIETENDQLKKDLPQMSLKERIALLQEQQRLQAAREEELLRKKAKLEQEHERSAVNKNEPYTETEEAEENEKTEPKPEFTPETEHNEEPQMELLAHKEITKTSREADEGTNDIEKEQFLDEYTKENQKVEESQADEARGENVAEESEIGYGHEDREGDNDEEKEEEDSEENRRAALRERMAKLSGASRFGAPVGFNPFGMASGVGNKPSEEPKKKQHKEKEEEEPEQLQELPRAIPVMPFVDPSSNPFFRKSNLSEKNQPTETKTLDPHATTEHEQKQEHGTHAYHNLAAVDNAHPEYSDHDSDEDTDDHEFEDANDGLRKHSMVEQAFQIGNNESENVNSGEKIYPQEPPISHRTAEVSHDIENSSQNTTGNVLPVSSPQTRVARNGSINSLTKSISGENRRKSINEYHDTVSTNSSALTETAQDISMAAPAAPVLSKVSHPEDKVPPHPVPSAPSAPPVPSAPSVPSAPPVPPAPPALSAPSVPPVPPVPPVSSAPPALSAPSIPPVPPTPPAPPAPPAPLALPKHNEVEEHVKSSAPLPPVSEEYHPMPNTAPPLPRAPPVPPATFEFDSEPTATHSHTAPSPPPHQNVTASTPSMMSTQQRVPTSVLSGAEKESRTLPPHVPSLTNRPVDSFHESDTTPKVASIRRSTTHDVGEISNNVKIEFNAQERWWINKSAPPAISNLKLNFLMEIDDHFISKRLHQKWVVRDFYFLFENYSQLRFSLTFNSTSPEKTVTTLQERFPSPVETQSARILDEYAQRFNAKVVEKSHSLINSHIGAKNFVSQIVSEFKDEVIQPIGARTFGATILSYKPEEGIEQLMKSLQKIKPGDILVIRKAKFEAHKKIGKNEIINVGMDSAAPYSSVVTDYDFTKNKFRVIENHEGKIIQNSYKLSHMKSGKLKVFRIVARGYVGW
- Protein-protein interaction distance between Abp1 SH3-swapped baits, to ABP1 (Abp1 bait with swapped SH3, distance to bait with ABP1 SH3, sheet Fig2C): 7.08
- Protein-protein interaction distance between Abp1 SH3-swapped baits, to BBC1 (distance to Abp1 bait with BBC1 SH3, sheet Fig2C): 0.00
- Protein-protein interaction distance between Abp1 SH3-swapped baits, to BEM1-1 (distance to Abp1 bait with BEM1-1 SH3, sheet Fig2C): 12.07
- Protein-protein interaction distance between Abp1 SH3-swapped baits, to BEM1-2 (distance to Abp1 bait with BEM1-2 SH3, sheet Fig2C): 30.95
- Protein-protein interaction distance between Abp1 SH3-swapped baits, to BOI1 (distance to Abp1 bait with BOI1 SH3, sheet Fig2C): 9.448
- Protein-protein interaction distance between Abp1 SH3-swapped baits, to BOI2 (distance to Abp1 bait with BOI2 SH3, sheet Fig2C): 12.67
- Protein-protein interaction distance between Abp1 SH3-swapped baits, to BUD14 (distance to Abp1 bait with BUD14 SH3, sheet Fig2C): 15.23
- Protein-protein interaction distance between Abp1 SH3-swapped baits, to BZZ1-1 (distance to Abp1 bait with BZZ1-1 SH3, sheet Fig2C): 7.773
- Protein-protein interaction distance between Abp1 SH3-swapped baits, to BZZ1-2 (distance to Abp1 bait with BZZ1-2 SH3, sheet Fig2C): 9.168
- Protein-protein interaction distance between Abp1 SH3-swapped baits, to CDC25 (distance to Abp1 bait with CDC25 SH3, sheet Fig2C): 24.45
- Protein-protein interaction distance between Abp1 SH3-swapped baits, to CTTN (distance to Abp1 bait with CTTN SH3, sheet Fig2C): 6.802
- Protein-protein interaction distance between Abp1 SH3-swapped baits, to CYK3 (distance to Abp1 bait with CYK3 SH3, sheet Fig2C): 25.11
- Protein-protein interaction distance between Abp1 SH3-swapped baits, to DBNL (distance to Abp1 bait with DBNL SH3, sheet Fig2C): 7.329
- Protein-protein interaction distance between Abp1 SH3-swapped baits, to FUS1 (distance to Abp1 bait with FUS1 SH3, sheet Fig2C): 16.64
- Protein-protein interaction distance between Abp1 SH3-swapped baits, to HCLS1 (distance to Abp1 bait with HCLS1 SH3, sheet Fig2C): 6.39
- Protein-protein interaction distance between Abp1 SH3-swapped baits, to HOF1 (distance to Abp1 bait with HOF1 SH3, sheet Fig2C): 29.63
- Protein-protein interaction distance between Abp1 SH3-swapped baits, to HSE1 (distance to Abp1 bait with HSE1 SH3, sheet Fig2C): 7.295
- Protein-protein interaction distance between Abp1 SH3-swapped baits, to LSB1 (distance to Abp1 bait with LSB1 SH3, sheet Fig2C): 13.47
- Protein-protein interaction distance between Abp1 SH3-swapped baits, to LSB3 (distance to Abp1 bait with LSB3 SH3, sheet Fig2C): 13.63
- Protein-protein interaction distance between Abp1 SH3-swapped baits, to MYO3 (distance to Abp1 bait with MYO3 SH3, sheet Fig2C): 13.06
- Protein-protein interaction distance between Abp1 SH3-swapped baits, to MYO5 (distance to Abp1 bait with MYO5 SH3, sheet Fig2C): 12.56
- Protein-protein interaction distance between Abp1 SH3-swapped baits, to NBP2 (distance to Abp1 bait with NBP2 SH3, sheet Fig2C): 14.24
- Protein-protein interaction distance between Abp1 SH3-swapped baits, to PEX13 (distance to Abp1 bait with PEX13 SH3, sheet Fig2C): 10.86
- Protein-protein interaction distance between Abp1 SH3-swapped baits, to PIN3 (distance to Abp1 bait with PIN3 SH3, sheet Fig2C): 11.25
- Protein-protein interaction distance between Abp1 SH3-swapped baits, to RVS167 (distance to Abp1 bait with RVS167 SH3, sheet Fig2C): 9.304
- Protein-protein interaction distance between Abp1 SH3-swapped baits, to SDC25 (distance to Abp1 bait with SDC25 SH3, sheet Fig2C): 31.85
- Protein-protein interaction distance between Abp1 SH3-swapped baits, to SLA1-1 (distance to Abp1 bait with SLA1-1 SH3, sheet Fig2C): 27.19
- Protein-protein interaction distance between Abp1 SH3-swapped baits, to SLA1-2 (distance to Abp1 bait with SLA1-2 SH3, sheet Fig2C): 16.91
- Protein-protein interaction distance between Abp1 SH3-swapped baits, to SLA1-3 (distance to Abp1 bait with SLA1-3 SH3, sheet Fig2C): 13.32
- Protein-protein interaction distance between Abp1 SH3-swapped baits, to YSC84 (distance to Abp1 bait with YSC84 SH3, sheet Fig2C): 14.14
- PPIs gained by Abp1 - SH3-dependent PPIs gained by Abp1 [1]: 2
- SH3-dependent PPIs - SH3-dependent PPIs gained by Abp1 [1]: 19
- SH3-dependent PPIs gained by Abp1 (number of PPIs, Abp1 SH3-swapped with the listed SH3, DHFR-PCA, Fig2D,S2F): 0
- Interactions in Abp1 (number of interactions of Abp1 carrying the named SH3, sheet FigS2A-B): 78
